Drawing on US20240035010, “COMPOSITIONS COMPRISING A VARIANT POLYPEPTIDE AND USES THEREOF” (Arbor Biotechnologies, Inc., published 2024), this text covers indel activity for one molecule.

Series [1] has as its target T1, variant nuclease 7 substitutions D590G/E154G/E736G (P14R, D32R, I61R, E311R, D590G, E154G, E736G).
T1 chain: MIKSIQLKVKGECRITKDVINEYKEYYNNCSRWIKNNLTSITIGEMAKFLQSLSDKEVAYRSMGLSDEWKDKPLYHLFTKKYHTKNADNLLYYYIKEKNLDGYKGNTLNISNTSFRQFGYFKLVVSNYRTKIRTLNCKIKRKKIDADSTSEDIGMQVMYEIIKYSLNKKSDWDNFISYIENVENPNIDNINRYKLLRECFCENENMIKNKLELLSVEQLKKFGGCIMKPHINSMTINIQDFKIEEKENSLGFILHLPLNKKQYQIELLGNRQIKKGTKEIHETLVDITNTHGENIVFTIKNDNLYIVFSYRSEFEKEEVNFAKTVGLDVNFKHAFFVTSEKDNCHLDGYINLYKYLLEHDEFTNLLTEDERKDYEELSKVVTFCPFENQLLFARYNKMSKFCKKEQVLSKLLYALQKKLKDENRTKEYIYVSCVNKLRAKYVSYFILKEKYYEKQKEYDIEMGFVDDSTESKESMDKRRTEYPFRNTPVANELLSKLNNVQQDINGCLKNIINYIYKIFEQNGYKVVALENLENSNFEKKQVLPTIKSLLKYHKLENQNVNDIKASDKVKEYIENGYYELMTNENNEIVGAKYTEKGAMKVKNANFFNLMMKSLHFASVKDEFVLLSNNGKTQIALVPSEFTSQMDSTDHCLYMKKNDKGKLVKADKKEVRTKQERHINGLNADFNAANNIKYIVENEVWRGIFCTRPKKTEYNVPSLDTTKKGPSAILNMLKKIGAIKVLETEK
Briefly: cell_activity; PAM 5'-TTTA-3'. The following applies: tags: pcDNA3.1 expression. Summed up: (§1)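 HEK293T cells were lipofected with nuclease plasmid (pcDNA3.1 backbone) plus RNA guide plasmid, with guide omitted in negative controls. After ~72 h cells were lysed in QuickExtract and % indels were derived from NGS reads, averaged over two bioreplicates and two technical replicates.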

Series [2] has as its target T2, variant nuclease L38G combination (P14R, D32R, I61R, E311R, L38G).
T2 chain: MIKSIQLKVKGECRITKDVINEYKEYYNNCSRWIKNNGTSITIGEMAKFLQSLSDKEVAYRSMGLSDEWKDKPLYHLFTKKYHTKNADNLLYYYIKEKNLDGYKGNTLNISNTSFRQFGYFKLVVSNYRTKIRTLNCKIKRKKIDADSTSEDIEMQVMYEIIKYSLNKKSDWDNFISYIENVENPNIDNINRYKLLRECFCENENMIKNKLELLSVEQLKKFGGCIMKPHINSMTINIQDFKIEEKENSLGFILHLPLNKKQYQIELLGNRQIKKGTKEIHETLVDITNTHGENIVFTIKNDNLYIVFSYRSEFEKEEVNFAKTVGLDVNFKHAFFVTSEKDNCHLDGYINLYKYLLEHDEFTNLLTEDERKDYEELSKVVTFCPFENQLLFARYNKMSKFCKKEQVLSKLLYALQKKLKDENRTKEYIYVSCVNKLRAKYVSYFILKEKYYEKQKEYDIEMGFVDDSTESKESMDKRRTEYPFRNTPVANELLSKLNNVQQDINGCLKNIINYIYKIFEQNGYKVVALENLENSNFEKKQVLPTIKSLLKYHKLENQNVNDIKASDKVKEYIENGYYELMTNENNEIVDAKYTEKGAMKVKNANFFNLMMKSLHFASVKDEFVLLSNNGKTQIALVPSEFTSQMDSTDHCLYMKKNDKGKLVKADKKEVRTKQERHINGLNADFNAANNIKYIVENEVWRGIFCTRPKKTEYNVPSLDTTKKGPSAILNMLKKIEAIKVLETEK
Briefly: cell_activity; PAM 5'-TTTA-3'. The following applies: tags: pcDNA3.1 expression. Summed up: as §1

B1: VEGFA crRNA ; VEGFA target (ssRNA ; dsDNA)
RNA: CUUGUUGUAUAUGUCCUUUUAUAGGUAUUAAACAACUCCAGACCACCAAUGGGCAC
DNA 1: TCCAGACCACCAATGGGCAC
DNA 2: GTGCCCATTGGTGGTCTGGA
As to B1, the values for the indel activity in series [1] and in series [2] were 3.13 fold of WT and 0.22 fold of WT, respectively.
